This assay concerns the target T1, native human lipocalin 2 (LCN2) (human), P80188.
T1 chain: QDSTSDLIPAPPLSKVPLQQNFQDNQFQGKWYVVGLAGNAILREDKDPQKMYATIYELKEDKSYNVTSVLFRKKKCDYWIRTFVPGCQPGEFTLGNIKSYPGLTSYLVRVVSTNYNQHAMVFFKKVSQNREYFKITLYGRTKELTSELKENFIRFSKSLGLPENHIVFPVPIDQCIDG
The assay can be described thus: non-reducing SDS-PAGE with immunoblot; purified proteins in vitro, non-reducing conditions, anti-human LCN2 antibodies; monomer about 20 kDa, dimer about 40 kDa. Conditions: remark: other sources report otherwise. In general terms: In western blotting, separated proteins are transferred to a membrane and probed.

B1: native human lipocalin 2 (LCN2), P80188-1 21-198 (natural protein)
chain: QDSTSDLIPAPPLSKVPLQQNFQDNQFQGKWYVVGLAGNAILREDKDPQKMYATIYELKEDKSYNVTSVLFRKKKCDYWIRTFVPGCQPGEFTLGNIKSYPGLTSYLVRVVSTNYNQHAMVFFKKVSQNREYFKITLYGRTKELTSELKENFIRFSKSLGLPENHIVFPVPIDQCIDG
In the case of B1, the stoichiometry N (in general, the number of molecules, sites or subunits per partner or assembly) amounted to 2.

Values taken from PMC5095531.
